# From US8143228B2, “Agents capable of downregulating an MSF-A dependent HIF-1α and use thereof in cancer treatment” (Medical Research Fund of Tel Aviv Sourasky Medical Center, priority 2004, dated 2012)
# B1: MSF-A: myeloid/lymphoid leukemia septin-like fusion protein A (SEQ ID NO:3), over-expressed from the p3xFlag-MSF-A vector (protein, listed as Homo sapiens)
# chain: MKKSYSGGTRTSSGRLRRLGDSSGPALKRSFEVEEVETPNSTPPRRVQTPLLRATVASSTQKFQDLGVKNSEPSARHVDSLSQRSPKASLRRVELSGPKAAEPVSRRTELSIDISSKQVENAGAIGPSRFGLKRAEVLGHKTPEPAPRRTEITIVKPQESAHRRMEPPASKVPEVPTAPATDAAPKRVEIQMPKPAEAPTAPSPAQTLENSEPAPVSQLQSRLEPKPQPPVAEATPRSQEATEAAPSCVGDMADTPRDAGLKQAPASRNEKAPVDFGYVGIDSILEQMRRKAMKQGFEFNIMVVGQSGLGKSTLINTLFKSKISRKSVQPTSEERIPKTIEIKSITHDIEEKGVRMKLTVIDTPGFGDHINNENCWQPIMKFINDQYEKYLQEEVNINRKKRIPDTRVHCCLYFIPATGHSLRPLDIEFMKRLSKVVNIVPVIAKADTLTLEERVHFKQRITADLLSNGIDVYPQKEFDEDSEDRLVNEKFREMIPFAVVGSDHEYQVNGKRILGRKTKWGTIEVENTTHCEFAYLRDLLIRTHMQNIKDITSSIHFEAYRVKRLNEGSSAMANGVEEKEPEAPEM
# modifications: 3xFlag tag
# Experiments:
# [1] = test system: PC-3 xenograft tumors; assay: Prostate cancer subcutaneous xenograft model; format: in vivo, CD1/nude mice; conditions: PC-3-MSF-A vs PC-3-Neo tumors
# Description: FIG. 28 is a graph depicting the effect of MSF-A over-expression on tumor volume. A prostate cancer xenograft model was established using PC-3-Neo and PC-3-MSF-A cells (3×10^6) which were implanted subcutaneously into the right hind of nude mice. PBS was used as a negative control. Animals were monitored for tumor volume measurements. Tumor volume measurements were calculated using the formula width^2×length×0.52. Mean±SEM (n=5) of representative experiments is shown.
# FIG. 29 is a graph depicting the effect of MSF-A over-expression on tumor weight. A prostate cancer xenograft model was established as described in FIG. 28. Mice were sacrificed after 6 weeks and tumors were processed for tumor weight measurements. Tumors were weighed immediately after dissection. Columns, means; bars, SEM; n=5; *, p<0.05.
# FIGS. 30a-h are photomicrographs (FIGS. 30a-f) and graphs (FIGS. 30g-h) depicting MSF-A over-expression in tumors and angiogenesis in a prostate cancer xenograft model. […] FIG. 30g—Ki67 staining (%) was quantified by dividing the number of positive nuclei by the number of total nuclei in 40× magnification field multiplied by 100, of 5 paraffin-embedded tumor sections from each animal per group. […] FIG. 30h—Microvessel density (MVD) was determined by counting the capillaries positive for CD34 staining in 4× magnification field per total section area excluding necrotic areas in 5 paraffin-embedded tumor sections from each animal per group. […]
# Immunohistochemistry with anti-CD34 and anti-Ki67—For immunohistochemical staining paraffin-embedded tissue was sectioned at 3 μm and mounted on Superfrost/plus slides (Menzel-Glaser, Braunschweig, Germany). […] For quantitative analysis of Ki67 and CD34 staining, positive staining cells and microvessels were counted and their density expressed as the number of positive cells per total number of cells or capillaries per total section area excluding necrotic areas, respectively. […]
# [2] = test system: HIF-1 transcriptional activity; assay: HRE-dependent luciferase reporter gene assay in PC-3 cells; format: cell-based; conditions: pooled PC-3-MSF-A vs PC-3-Neo cells
# Description: Reporter gene assay and luminescence measurements—HRE-dependent luciferase activity was performed using the pBI-GL construct (pBI-GL V6L) containing six tandem copies of the VEGF hypoxia response element as previously described (Mabjeesh et al., 2002; Post and Van Meir, 2001). Cells were grown in 6-well plates and then transiently transfected in triplicate with a total of 1 μg DNA including 0.1 μg of the reporter plasmid, pBI-GL V6L. Duplicate sets of transfected cell-culture plates were then separated and incubated for 16 hours under either normoxic or hypoxic conditions. Luciferase enzymatic activity was measured using the commercial kit TROPIX (Bedford, Mass.) in the Galaxy luminometer (BMG Labtechnologies LUMIstar) following the manufacturer's instructions. Arbitrary Luciferase activity units were normalized to the amount of protein in each assay point.
# To investigate the effect of MSF-A binding on HIF-1α function, the transcriptional activity of the HIF-1 complex was determined using a reporter gene assay as previously described (Mabjeesh N J et al. 2ME2 inhibits tumor growth and angiogenesis by disrupting microtubules and dysregulating HIF. Cancer Cell 2003; 3: 363-375). […]
molecule,measurement,setting,value
B1,intratumoral cell proliferation (Ki67) and vascular density (CD34),[1],significantly increased
same,mean tumor weight,[1]; after 6 weeks,significantly heavier
same,increase of mean tumor volume,"[1]; s.c., nude mice, not statistically significant",about 2 fold
same,"HIF-1 transcriptional activity (luciferase assay), stable transfectants",[2],significant increase
